Several values for one entry are separate records, joined by “and”; a condition that tells them apart may be missing. Equal entries are not always repeated.
Molecular target: the molecule itself
Experiment: SEC; HiLoad 16/60 Superdex 75; 20 mM NaCl, 50 mM Tris-HCl pH 8.0, 2 mM EDTA, 10 mM GSH; apparent molecular masses

B1: Saccharomyces cerevisiae glutaredoxin Grx6 without the signal peptide (residues Lys37-Asn231) (enzyme)
chain: KEETSKAFSTNMDNMAGGSSREYAAMPTSTTNKGSSEVDEEINEIKQKVGLQQPIASVDDSLSAIKNDKGSRITKAFNVQKEYSLILDLSPIIIFSKSTCSYSKGMKELLENEYQFIPNYYIIELDKHGHGEELQEYIKLVTGRGTVPNLLVNGVSRGGNEEIKKLHTQGKLLESLQVWSDGKFSVEQREKPSNNLEHHHHHH
For B1, the “stoichiometry N” value was 2 and 4.

Reference: paper PMC5053157, “Crystal structure of yeast monothiol glutaredoxin Grx6 in complex with a glutathione-coordinated [2Fe–2S] cluster” (Acta Crystallographica. Section F, Structural Biology …, 2016)
